The values that follow come from PMC6208296, “Redox regulation of pyruvate kinase M2 by cysteine oxidation and S-nitrosation” (Biochemical Journal, 2018).

For test [1], the target named is Pyruvate kinase M2 (Homo sapiens) (UniProt P14618). In words: gel filtration. Particulars: cited from earlier work.
Test [2] concerns the target M2 isoform of human pyruvate kinase, wild type (human) (UniProt P14618). In words: SEC; analytical gel filtration, Superdex 200 PC 3.2/30 in PBS-CM, room temperature; 0.1 mg/ml incubated 12 h (equilibrium) without or with 1 mM DTT or 20 μM H2O2; tetramer to monomers, peak areas on a bimodal distribution.
Test [3] has the same target. In words: SEC; analytical gel filtration, Superdex 200 PC 3.2/30 in PBS-CM, room temperature; stock of ∼20 mg/ml diluted to 0.1 mg/ml and incubated 1 h without or with 1 mM DTT or 20 μM H2O2; tetramer to monomers, peak areas on a bimodal distribution.

Chain of M2 isoform of human pyruvate kinase, wild type, P14618 1-531 (enzyme; other documents disagree on this pair) (P14618 whole entry, canonical isoform): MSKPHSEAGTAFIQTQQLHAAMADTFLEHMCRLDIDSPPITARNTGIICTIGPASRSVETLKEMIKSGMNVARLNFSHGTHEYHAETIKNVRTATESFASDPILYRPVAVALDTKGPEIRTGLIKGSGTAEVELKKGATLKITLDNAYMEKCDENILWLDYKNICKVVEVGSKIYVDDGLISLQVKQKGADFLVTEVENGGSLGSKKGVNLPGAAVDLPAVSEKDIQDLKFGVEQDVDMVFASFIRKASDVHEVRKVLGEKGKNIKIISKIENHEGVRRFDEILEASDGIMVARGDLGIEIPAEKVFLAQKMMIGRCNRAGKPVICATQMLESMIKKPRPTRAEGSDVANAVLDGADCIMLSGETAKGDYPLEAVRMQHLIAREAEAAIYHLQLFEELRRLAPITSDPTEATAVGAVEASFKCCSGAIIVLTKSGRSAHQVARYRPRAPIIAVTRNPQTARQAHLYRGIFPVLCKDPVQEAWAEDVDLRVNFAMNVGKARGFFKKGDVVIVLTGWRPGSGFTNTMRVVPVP
Chain of Pyruvate kinase M2 (P14618 2-531): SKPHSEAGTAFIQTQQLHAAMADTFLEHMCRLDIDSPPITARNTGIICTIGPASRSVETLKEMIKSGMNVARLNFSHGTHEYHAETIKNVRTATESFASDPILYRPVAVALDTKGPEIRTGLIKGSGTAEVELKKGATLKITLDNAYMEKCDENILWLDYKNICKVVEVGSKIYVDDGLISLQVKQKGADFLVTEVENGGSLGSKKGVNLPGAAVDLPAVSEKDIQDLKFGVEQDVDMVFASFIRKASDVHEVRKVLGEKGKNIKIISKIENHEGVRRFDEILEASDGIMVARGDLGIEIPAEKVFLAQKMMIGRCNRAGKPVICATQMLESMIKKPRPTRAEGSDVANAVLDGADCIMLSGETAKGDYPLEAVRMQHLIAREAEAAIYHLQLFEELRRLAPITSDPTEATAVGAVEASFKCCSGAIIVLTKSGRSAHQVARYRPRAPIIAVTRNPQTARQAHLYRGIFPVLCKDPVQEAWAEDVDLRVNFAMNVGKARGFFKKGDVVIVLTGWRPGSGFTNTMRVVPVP

Take “Pyruvate kinase M2 (from UniProt P14618)”: in test [1], the Kd was 900 nM.
For the substance “M2 isoform of human pyruvate kinase, wild type, P14618 1-531 (enzyme; other documents disagree on this pair)”, in test [2], the percent tetramer (20 μM H2O2, 12 h) came out at 42%; the percent tetramer (1 mM DTT, 12 h) is 71%; the percent tetramer (no DTT, no H2O2, 12 h) came out at 55%. Moreover, in test [3], the percent tetramer (20 μM H2O2, 1 h) amounted to 63%; the percent tetramer (1 mM DTT, 1 h) came to 64%; the percent tetramer (no DTT, no H2O2, 1 h) was 62%.
